# B1: MAGE3.138.V2 (peptide)
# peptide: YVFPVIFSK
# B2: p53.132 (peptide)
# peptide: KMFCQLAK
# B3: p53.101.V2K10 (peptide)
# peptide: KVYQGSYGFK
# B4: p53.101.V2 (peptide)
# peptide: KVYQGSYGFR
# B5: p53.101.K10 (peptide)
# peptide: KTYQGSYGFK
# B6: MAGE2/3.116 (8-mer) (peptide)
# peptide: LVHFLLLK
# B7: p53.240 (10-mer) (peptide)
# peptide: SSCMGGMNRR
# B8: MAGE2.69.K9 (peptide)
# peptide: SSFSTTINK
# B9: p53.240 (9-mer) (peptide)
# peptide: SSCMGGMNR
# B10: MAGE2.226 (peptide)
# peptide: SMLEVFEGR
# B11: Her2/neu.921I8 (peptide)
# peptide: KPYDGIPI
# B12: MAGE2.71 (peptide)
# peptide: FSTTINYTLWR
# B13: MAGE3.138.V2R9 (peptide)
# peptide: YVFPVIFSR
# B14: p53.154 (peptide)
# peptide: GTRVRAMAIYK
# B15: p53.375.V2 (peptide)
# peptide: SVSRHKKLMFK
# B16: MAGE3.189 (peptide)
# peptide: LLGDNQIMPK
# B17: p53.154.V2 (peptide)
# peptide: GVRVRAMAIYK
# B18: MAGE3.138 (peptide)
# peptide: YFFPVIFSK
# B19: p53.273 (8-mer) (peptide)
# peptide: RVCACPGR
# B20: MAGE2.73.V2K9 (peptide)
# peptide: TVINYTLWK
# B21: MAGE2.277 (peptide)
# peptide: ALIETSYVK
# B22: p53.156 (peptide)
# peptide: RVRAMAIYK
# B23: p53.124 (peptide)
# peptide: CTYSPALNK
# B24: p53.156.R9 (peptide)
# peptide: RVRAMAIYR
# B25: CEA.13 (peptide)
# peptide: IPWQRLLLTA
# B26: p53.376.V2R11 (peptide)
# peptide: SVSRHKKLMFR
# B27: MAGE2/3.116 (9-mer) (peptide)
# peptide: LVHFLLLKY
# B28: … (peptide)
# peptide: GERLPQPPICTI
# B29: MAGE2.69.K9 … (peptide)
# peptide: SSFSTTINK
# B30: p53.101.K10 … (peptide)
# peptide: KTYQGSYGFK
# B31: MAGE3.138.V2 … (peptide)
# peptide: YVFPVIFSK
# B32: p53.154 … (peptide)
# peptide: GTRVRAMAIYK
# B33: p53.273 RVCACPGR (peptide)
# peptide: RVCACPGR
# B34: p53.124 … (peptide)
# peptide: CTYSPALNK
# B35: p53.84 APAPAPSW (peptide)
# peptide: APAPAPSW
# B36: MAGE3.77.I8 YPLWSQSI (peptide)
# peptide: YPLWSQSI
# Target: HLA-A*1101 (human)
# Experiment: competition vs 125I probe, purified HLA
# Settings: remark: other sources report otherwise
row,IC50 [µM],Binder
1,0.003,B1
2,0.017,B2
3,0.0092,B3
4,0.062,B4
5,0.014,B5
6,0.04,B6
7,0.07,B7
8,0.003,B8
9,0.0043,B9

# Target: HLA-A*3301 (human)
# Experiment: competition vs 125I probe, purified HLA
# Settings: remark: other sources report otherwise
row,IC50 [µM],Binder
1,0.009,B10

# Target: HLA-B*5301 (human)
# Experiment: competition vs 125I probe, purified HLA
# Settings: remark: other sources report otherwise
row,IC50 [µM],Binder
1,0.0517,B11

# Target: HLA-A*0301 (human)
# Experiment: competition vs 125I probe, purified HLA
# Settings: remark: other sources report otherwise
row,IC50 [µM],Binder
1,0.029,B2
2,1,B12
3,0.033,B3
4,0.038,B4
5,0.036,B13
6,0.01,B14
7,0.033,B15
8,0.5,B16
9,0.058,B17
10,0.55,B9
11,5,B18
12,0.031,B19

# Target: HLA-A*3101 (human)
# Experiment: competition vs 125I probe, purified HLA
# Settings: remark: other sources report otherwise
row,IC50 [µM],Binder
1,9,B20
2,0.072,B4
3,0.006,B13
4,0.9,B21
5,0.005,B22
6,1.5,B23
7,0.009,B24

# Target: HLA-B*5401 (human)
# Experiment: competition vs 125I probe, purified HLA
# Settings: remark: other sources report otherwise
row,IC50 [µM],Binder
1,0.0032,B25

# Target: HLA-A*6801 (human)
# Experiment: competition vs 125I probe, purified HLA
# Settings: remark: other sources report otherwise
row,IC50 [µM],Binder
1,0.5,B26
2,0.727,B2
3,0.038,B3
4,0.04,B4
5,0.4,B6
6,8,B27

# Target: HLA-B*4002 (human)
# Experiment: competition with radiolabeled probe peptide, purified HLA
# Settings: remark: other sources report otherwise
row,IC50 [µM],Binder
1,0.0095,B28

# Target: HLA-A*1101 (human)
# Experiment: competitive inhibition of 125I-A3con binding to purified HLA
# Settings: remark: other sources report otherwise
row,IC50 [µM],Binder
1,0.003,B29
2,0.014,B30
3,0.003,B31

# Target: HLA-A*0301 (human)
# Experiment: as above
# Settings: remark: other sources report otherwise
row,IC50 [µM],Binder
1,0.01,B32
2,0.031,B33

# Target: HLA-A*3101 (human)
# Experiment: as above
# Settings: remark: other sources report otherwise
row,IC50 [µM],Binder
1,1.5,B34

# Target: HLA-B*3501 (human)
# Experiment: inhibition of 125I-B35con2 probe, purified HLA
# Settings: remark: other sources report otherwise
row,IC50 [µM],Binder
1,0.0327,B35

# Target: HLA-B*0702 (human)
# Experiment: inhibition of 125I-[..] probe, purified HLA
# Settings: remark: other sources report otherwise
row,IC50 [µM],Binder
1,0.06,B36
